Data: paper PMC2688778 (Structure (London, England : 1993), 2009)

Key:
Test in all cases: fluorescence anisotropy
RecE564 K704A = target: T1, RecE564 K704A (Escherichia coli K12, UniProt P15032 564-866, K704A)
T1 sequence: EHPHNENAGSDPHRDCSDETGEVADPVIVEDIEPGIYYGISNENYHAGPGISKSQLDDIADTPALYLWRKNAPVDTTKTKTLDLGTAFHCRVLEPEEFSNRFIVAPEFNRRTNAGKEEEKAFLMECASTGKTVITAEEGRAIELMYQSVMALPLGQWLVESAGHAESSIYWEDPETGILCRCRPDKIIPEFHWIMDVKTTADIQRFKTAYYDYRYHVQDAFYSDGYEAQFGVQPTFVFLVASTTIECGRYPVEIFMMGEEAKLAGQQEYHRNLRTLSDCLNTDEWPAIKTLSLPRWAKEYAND

RecE564 WT = target: T2, RecE564 WT (Escherichia coli K12, UniProt P15032 564-866)
T2 sequence: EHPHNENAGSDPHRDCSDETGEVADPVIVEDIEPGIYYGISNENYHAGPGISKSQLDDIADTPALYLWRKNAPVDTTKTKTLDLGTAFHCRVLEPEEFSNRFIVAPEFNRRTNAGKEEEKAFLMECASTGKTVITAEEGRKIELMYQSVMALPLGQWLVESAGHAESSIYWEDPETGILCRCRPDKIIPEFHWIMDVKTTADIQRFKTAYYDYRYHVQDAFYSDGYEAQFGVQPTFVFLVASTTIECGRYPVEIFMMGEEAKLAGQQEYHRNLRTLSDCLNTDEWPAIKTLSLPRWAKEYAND

RecE564 T675A = target: T3, RecE564 T675A (Escherichia coli K12, UniProt P15032 564-866, T675A)
T3 sequence: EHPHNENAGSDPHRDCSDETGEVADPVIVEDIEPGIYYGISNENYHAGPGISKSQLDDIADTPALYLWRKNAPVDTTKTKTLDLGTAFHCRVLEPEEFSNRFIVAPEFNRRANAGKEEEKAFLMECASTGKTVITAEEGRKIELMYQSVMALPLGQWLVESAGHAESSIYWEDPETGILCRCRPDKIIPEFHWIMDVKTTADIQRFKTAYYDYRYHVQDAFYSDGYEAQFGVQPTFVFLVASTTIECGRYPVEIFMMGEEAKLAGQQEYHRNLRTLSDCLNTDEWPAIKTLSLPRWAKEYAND

RecE564 F665A = target: T4, RecE564 F665A (Escherichia coli K12, UniProt P15032 564-866, F665A)
T4 sequence: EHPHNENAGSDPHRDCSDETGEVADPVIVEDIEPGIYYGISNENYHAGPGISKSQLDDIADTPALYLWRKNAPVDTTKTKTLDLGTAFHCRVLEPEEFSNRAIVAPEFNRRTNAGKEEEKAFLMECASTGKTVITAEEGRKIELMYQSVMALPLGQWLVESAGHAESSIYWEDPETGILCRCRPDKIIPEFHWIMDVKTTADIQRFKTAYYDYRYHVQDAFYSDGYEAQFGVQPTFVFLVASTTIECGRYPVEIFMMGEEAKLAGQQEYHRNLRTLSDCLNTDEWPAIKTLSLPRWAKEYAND

RecE564 R768A = target: T5, RecE564 R768A (Escherichia coli K12, UniProt P15032 564-866, R768A)
T5 sequence: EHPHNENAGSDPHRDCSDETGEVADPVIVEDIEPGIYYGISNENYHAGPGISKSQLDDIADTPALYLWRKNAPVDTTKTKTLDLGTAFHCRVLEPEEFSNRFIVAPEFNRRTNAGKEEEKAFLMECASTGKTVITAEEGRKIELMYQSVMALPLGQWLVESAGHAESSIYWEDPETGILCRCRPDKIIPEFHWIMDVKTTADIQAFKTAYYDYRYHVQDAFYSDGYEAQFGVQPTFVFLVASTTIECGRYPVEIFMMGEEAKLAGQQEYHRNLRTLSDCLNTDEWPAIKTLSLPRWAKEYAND

RecE564 S617A = target: T6, RecE564 S617A (Escherichia coli K12, UniProt P15032 564-866, S617A)
T6 sequence: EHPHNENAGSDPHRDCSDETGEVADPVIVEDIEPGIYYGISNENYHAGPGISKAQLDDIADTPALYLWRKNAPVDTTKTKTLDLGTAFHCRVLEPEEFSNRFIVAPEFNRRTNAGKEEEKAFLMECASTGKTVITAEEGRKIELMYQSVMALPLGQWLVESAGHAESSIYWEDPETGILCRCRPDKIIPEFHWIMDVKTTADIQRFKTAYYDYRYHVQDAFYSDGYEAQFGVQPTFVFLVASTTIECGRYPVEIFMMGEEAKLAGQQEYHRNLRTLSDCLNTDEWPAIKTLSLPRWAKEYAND

B1: F25 (dsDNA)
DNA 1: TAGAGCTTAATTGCTGAATCTGGTG
DNA 2: CACCAGATTCAGCAATTAAGCTCTA
Work on B1 yielded a Kd (RecE564 K704A) of 330 ± 50 nM, a Kd (RecE564 WT) of 70 ± 2 nM and a Kd (RecE564 T675A) of 650 ± 30 nM. For the same binder, the Kd (RecE564 F665A) was 200 ± 20 nM, the Kd (RecE564 R768A) was 310 ± 30 nM and the Kd (RecE564 S617A) was 150 ± 20 nM.
